Columns and labels:
[1] = target: 구제역 바이러스 혈청형 O 배양액(cal1~cal4) (Foot-and-mouth disease virus serotype O); assay: sandwich ELISA, cal2, 1E58 coat 1 ug/ml, 1E58-HRP 0.4 ug/ml, 450 nm
[2] = target: 구제역 바이러스 혈청형 O 배양액(cal1~cal4) (Foot-and-mouth disease virus serotype O); assay: sandwich ELISA, cal3, 1E58 coat 1 ug/ml, 1E58-HRP 0.8 ug/ml, 450 nm

B1: 단클론항체 1E58 (antibody, V domains shown)
VH: EFQLQQSRPELAKPGASVKISCKTSGHTFTTYTMHWVKQSHVKSLEWIGCFNPNNGGATYNQKFKGKATLTMDKSSNTAYVEVRSLTSDDSAVYYCAYGNYVNFDYWGQGTTLTVSS
VL: DIVLTQSPASLAVSLGQRATISYRASKSVSTSGYSYMHWNQQKPGQPPRLLIYLVSNLESGVPARFSGSGSGTDFTLNIHPVEEEDAATYYCQHIRELTRSEGGPSWKN
In the case of B1, the O.D [1] is reported as 1.4 O.D and the O.D [2] is reported as 1.17 O.D.

Source: KR20200059381A
